According to the supplement of paper PMC12667976:

B1: library; numbered along this chain (parent)
chain: MATDAALRRLLRLHRTEIAVAVDSAFPLLHALADHDVVPEDKFQETLHLKEKEGCPQAFHALLSWLLTQDSTAILDFWRVLFKDYNLERYGRLQPILDSFPKDVDLSQPRKGRKPPAVPKALVPPPRLPTKRKASEEARAAAPAALTPRGTASPGSQLKAKPPKKPESSAEQQRLPLGNGIQTMSASVQRAVAMSSGDVPGARGAVEGILIQQVFESGGSKKCIQVGGEFYTPSKFEDSGSGKNKARSSSGPKPLVRAKGAQGAAPGGGEARLGQQGSVPAPLALPSDPQLHQKNEDECAVCRDGGELICCDGCPRAFHLACLSPPLREIPSGTWRCSSCLQATVQEVQPRAEEPRPQEPPVETPLPPGLRSAGEEVRGPPGEPLAGMDTTLVYKHLPAPPSAAPLPGLDSSALHPLLCVGPEGQQNLAPGARCGVCGDGTDVLRCTHCAAAFHWRCHFPAGTSRPGTGLRCRSCSGDVTPAPVEGVLAPSPARLAPGPAKDDTASHEPALHRDDLESLLSEHTFDGILQWAIQSMARPAAPFPS

Variants of: B1
Assay: AIRE transcriptional activation functional score (insulin promoter-GFP; nonsense median 0, synonymous median 1) (normalised score); higher = higher AIRE activity (more reporter activation)
Conditions: with insulin promoter-GFP reporter in HEK293
Experimental: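 Deep mutational scan of full-length human AIRE (codon-optimized cDNA, DT-POPCode NNN libraries over three regions) integrated at a Bxb1 landing pad in HEK293 cells carrying an insulin core promoter-GFP reporter at a Flp-In site. Cells were sorted for the top 10% GFP about 14 days after transfection. Variant frequency log-ratios (select vs non-select, TileSeq) were rescaled so that the nonsense median is 0 and the synonymous median is 1, then averaged over biological replicates.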

AIRE transcriptional activation functional score: each site, then its substitutions
G306: I 0.377 | M 0.451 | C 0.922 | P 0.361 | V 0.712 | F 0.459 | W 0.744 | D 0.954 | N 1.18 | S 0.862 | L 0.492 | T 1.15 | K 0.811 | Y 0.924 | E 1.14 | H 1.11 | Q 1.14 | R 0.689 | A 0.976
C310: K 0.681 | R 0.907 | W 0.433 | M 0.814 | Y 0.993 | V 0.912 | N 0.714 | E 1.29 | F 0.908 | I 0.643 | L 0.935 | A 0.821 | P 0.625 | G 0.824 | H 0.624 | D 0.991 | T 0.959 | Q 0.509 | S 0.768
C311: P 1.34 | L 0.839 | V 0.86 | Y 0.792 | A 1.11 | M 1.62 | I 0.604 | F 0.878 | T 0.998 | R 0.856 | H 1.01 | D 0.772 | N 1.47 | Q 0.783 | S 1.04 | G 0.921 | W 0.678 | E 0.822 | K 1.13
E307: K 1.16 | V 1.2 | H 1.11 | T 1.03 | R 1.28 | L 0.372 | W 0.599 | G 1.18 | A 0.982 | D 0.973 | N 1.41 | Q 1 | I 0.714 | F 0.273 | S 1.2 | P 0.172 | C 0.732 | M 0.227 | Y 0.242
C314: A 0.983
I309: T 0.922 | K 0.472 | N 1.23 | W 1.55 | L 0.505 | A 0.827 | R 0.877 | Y 1.19 | Q 0.905 | M 0.866 | P 1.07 | V 1.14 | E 1.43 | C 0.782 | S 1.35 | H 0.916 | D 0.964 | F 1.18 | G 1.11
D312: Q 1.17 | N 0.702 | H 1 | T 0.953 | G 0.92 | Y 0.942 | R 0.976 | M 0.226 | C 1.09 | S 0.764 | V 0.485 | P 0.626 | A 1.19 | W 0.939 | L 0.872 | E 0.977 | K 0.281 | F 0.823 | I 0.684
L308: C 1.43 | P 0.912 | E 1.02 | V 1.16 | R 0.932 | G 0.784 | Y 0.412 | N 0.45 | I 0.905 | D 0.755 | M 1.11 | K 0.0443 | W -0.607 | Q 1.3 | F 0.909 | T 0.853 | A 1.06 | S 1.12 | H 1.33
G313: P 0.756 | T 0.676 | H 1.5 | F 1.13 | Y 1.16 | D 1.39 | C 1.51 | W 1.27 | A 0.829 | S 0.974 | L 1.28 | E 0.654 | K 0.717 | I 0.979 | Q 1 | M -0.04 | R 0.762 | N 0.241 | V 1.22
G305: R 0.945 | P 0.937 | W 0.779 | M 0.666 | Y 1.05 | H 0.264 | T 1.35 | K 1.08 | L 1.31 | V 1.07 | S 0.9 | I -0.493 | N 1.16 | Q 0.0432
